These results are taken from patent US20110229475A1 (GlaxoSmithKline, published 2011).

The target of the assay is T1, human IL-8 (human, UniProt P10145 28-99, limits assumed).
T1 construct: also called hIL-8; hIL8
Briefly: TRFIA, chemokine coated on plate, biotinylated anti-mouse IgG and streptavidin-europium detection.

Description: Briefly, each antigen (human IL-8, Gro-alpha, Gro-beta, Gro-gamma, GCP-2, and ENA-78, and hIL-18 when used as negative control) is individually coated onto a 96-well immunofluorescent plate. The plates are then washed and blocked with a commercially available blocking solution. Blocking solution is emptied and samples containing the mAb are added into each well and incubated for 40 to 60 minutes (this allows the mAb to bind to the target chemokines). The plates are then washed again and a detection Ab is added to each well. […] The detection antibody is conjugated to either europium or biotin. Following another round of washing, to remove unbound detection Ab, a solution of streptavidin-europium was added to biotin detected assays. Streptavidin-europium binds to the biotin allowing for detection. After a final wash to remove unbound streptavidin-europium, or in the case of the humanized MAb assay after the europium conjugate secondary is washed, each well is filled with a chelating detergent solution to activate the europium producing fluorescence. The greater the fluorescence recorded is directly proportionate to the amount of detection Ab present in the well which is directly linked and proportionate to the amount of the chemokine binding mAb.

B1: mouse monoclonal antibody 656.35 (antibody, IgG2a, V domains shown)
VH: QVQLQQSGAELVRPGTSVTISCKASGYTFTNYWIVWVKQRPGHGLEWIGDLYSGGGYTFYSENFKGKATLTADTSSSTAYMHLISLTSEDSAVYFCARSGYDRTWFAHWGQGSLVTVSA
VL: DIKMTQSPSSMSASLGERVTITCQASQDIESYLSWYQQKPWKSPKTLIYYATRLADGVPSRFSGSGSGQDYSLTISSLESDDTATYYCLQHGESPPTFGAGTKLELKR
notes: Murine hybridoma antibody; also called 2x656.35
On to B1, for which the “EC50 (read off the curve)” value is around 40 ng/mL.

One may read the EC50 (read off the curve) as the concentration needed to bring the measured effect to its halfway point. Low values mean greater potency, high ones weaker potency.
